US20120172298A1, “GLP-1 AND FGF21 COMBINATIONS FOR TREATMENT OF DIABETES TYPE 2” (Novo Nordisk A/S, priority 2009, published 2012)

Tested on: rat insulinoma beta-cells (INS-1)
Test: Insulin accumulated in the medium of INS-1 cells during 48 hour incubation with FFA
Assay type: cell-based
Settings: for Insulin accumulated in the medium: 48 hours, FGF21 compound = F1 50 nM, GLP-1 compound = G1 50 nM, mean +/- SEM
Description: This ex vivo example investigates the influence of FGF21 and GLP-1 compounds on FFA (free fatty acid) induced apoptosis of rat insulinoma beta-cells (INS-1).
Compound F1 (Prospec, cat. no. CYT-474) was used as the FGF21 compound, and compound G1 was used as the GLP-1 compound.
INS-1 cells were seeded in 96-well plates (50000 cells/well) and incubated overnight in cell medium (RPMI 1640 medium (Gibco, cat. no. 61870-010), supplemented with 10% FCS (Gibco, cat. no. 10085-140), 1% Pen/Strep (Gibco, cat. no. 15140-114) and 0.5 ml beta-mercaptoethanol (Gibco, cat. no. 31350-010 (50 mM)). The FGF21 compound (50 nM) and the GLP-1 compound (50 nM) were added to the cells 1 hour before the cells were to be exposed to FFA. The FFA's were prepared as follows: Stock solutions of palmitic acid (Sigma P5585) and oleic acid (Sigma 01383) of 1M in DMSO were mixed 1:2 and heated to 60 degree Celsius. The FFA mix was then diluted 10 times in 0.1M NaOH. This mixture was then further diluted in cell medium to yield a FFA concentration of 1 mM. The FFAs were then added to the cells to a final concentration of 0.35 mM. The cells were incubated for 48 hours and then the following three assays were performed: 1) Cell viability was assessed using the CellTiter 96® Non-radioactive Cell Proliferation Assay (MTT) from Promega, performed according to the manufacturer's instruction (absorbance at 550 nm, A550); 2) Apoptosis was assessed using the Apo-ONE® Homogeneous Caspase-3/7 Assay from Promega, performed according to the manufacturer's instruction (fluorescence); and 3) Insulin accumulated in the medium during the 48 hour incubation with FFA was analysed (as described in Example 3; ng/ml insulin).
The results of 1), 2) and 3) are shown in Tables 4, 5, and 6 below, respectively, all figures being mean+/−standard error of mean (SEM). […]

B1: Met-FGF21_human (protein, listed as Homo sapiens)
chain: HPIPDSSPLLQFGGQVRQRYLYTDDAQQTEAHLEIREDGTVGGAADQSPESLLQLKALKPGVIQILGVKTSRFLCQRPDGALYGSLHFDPEACSFRELLLEDGYNVYQSEAHGLPLHLPGNKSPHRDPAPRGPARFLPLPGLPPALPEPPGILAPQPPDVGSSDPLSMVGPSQGRSPSYAS
modifications: N-terminal Met; mat_peptide (1)..(181); DISULFID (75)..(93)
Insulin accumulated in the medium (FFA 0.00 mM): 1011 ± 112 ng/mL | Insulin accumulated in the medium (FFA 0.35 mM): 569 ± 14 ng/mL | stimulation of insulin release (absence of free fatty acids, F1 50 nM): does not stimulate insulin release
